How the values were obtained:
[1] = target: the molecule itself; assay: SEC-MALS; 1 mg/ml protein in 150 mM NaCl, 20 mM Tris pH 7.5; Superdex 200 Increase, 0.3 ml/min; tetramer and monomer
His-PKM2 = target: T1, His-PKM2 (human, UniProt P14618 1-531); assay: pull-down; GST-tagged protein on resin incubated with purified His-PKM2 for 2 h at 4 °C, eluted with 10 mM GSH in 50 mM Tris pH 8.0, immunoblot; conditions: both partners purified
T1 construct: full-length PKM2 cloned into the EcoRI/BamHI sites of pET-22b; also called His-tagged PKM2; His-PKM2 WT; source: E. coli, purified (nickel column)
T1 sequence (P14618 whole entry): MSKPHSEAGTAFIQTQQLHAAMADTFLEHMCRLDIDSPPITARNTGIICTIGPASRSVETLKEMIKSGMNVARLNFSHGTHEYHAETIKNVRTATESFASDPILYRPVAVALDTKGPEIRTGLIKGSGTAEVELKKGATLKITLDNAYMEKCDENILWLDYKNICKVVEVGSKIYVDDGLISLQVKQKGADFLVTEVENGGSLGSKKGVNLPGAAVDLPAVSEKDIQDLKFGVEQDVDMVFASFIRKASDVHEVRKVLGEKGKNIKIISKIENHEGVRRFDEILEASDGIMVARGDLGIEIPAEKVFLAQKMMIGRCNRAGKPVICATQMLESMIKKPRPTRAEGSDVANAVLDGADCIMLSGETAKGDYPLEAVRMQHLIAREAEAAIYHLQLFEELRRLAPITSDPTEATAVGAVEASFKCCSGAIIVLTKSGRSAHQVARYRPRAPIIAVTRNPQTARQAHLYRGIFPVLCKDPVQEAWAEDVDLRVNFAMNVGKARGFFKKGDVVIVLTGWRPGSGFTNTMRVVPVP

[2] = target: the molecule itself; assay: cross-linking; Flag-PKM2 purified on Flag beads from H1299 extracts, DSS crosslinking (1.5 mM, room temperature, 30 min), immunoblot

B1: His-PKM2 T45A mutant (natural protein)
chain: not shown
notes: Monomer and tetramer are both spoken of; source: E. coli, purified
For B1, the “stoichiometry N” value [1] was 4.

B2: GST-Aurora A (natural protein, human, UniProt O14965 1-403, looked up)
chain: MDRSKENCISGPVKATAPVGGPKRVLVTQQFPCQNPLPVNSGQAQRVLCPSNSSQRIPLQAQKLVSSHKPVQNQKQKQLQATSVPHPVSRPLNNTQKSKQPLPSAPENNPEEELASKQKNEESKKRQWALEDFEIGRPLGKGKFGNVYLAREKQSKFILALKVLFKAQLEKAGVEHQLRREVEIQSHLRHPNILRLYGYFHDATRVYLILEYAPLGTVYRELQKLSKFDEQRTATYITELANALSYCHSKRVIHRDIKPENLLLGSAGELKIADFGWSVHAPSSRRTTLCGTLDYLPPEMIEGRMHDEKVDLWSLGVLCYEFLVGKPPFEANTYQETYKRISRVEFTFPDFVTEGARDLISRLLKHNPSQRPMLREVLEHPWITANSSKPSNCQNKESASKQS
notes: full-length Aurora A cloned into the BamH/XhoI sites of p-GEX-5X-3
B2: binds (His-PKM2).

B3: shRNA-resistant Flag-PKM2 T45A (natural protein)
chain: not shown
notes: Flag-tagged human PKM2 T45A with two silent nucleotide substitutions in the shRNA-targeted region, in the pGIPZ system; Monomer and tetramer are both spoken of; 4 copies is the tetramer seen by cross-linking; also called PKM2 T45A mutant; source: H1299 with endogenous PKM2 knocked down, retroviral expression, purified on Flag beads
With B3 the “stoichiometry N” value [2] was 4.
